T1: recombinant human IL-23R (custom-made by Trenzyme) (human, UniProt Q5VWK5 24-355)
T1 sequence (looked up): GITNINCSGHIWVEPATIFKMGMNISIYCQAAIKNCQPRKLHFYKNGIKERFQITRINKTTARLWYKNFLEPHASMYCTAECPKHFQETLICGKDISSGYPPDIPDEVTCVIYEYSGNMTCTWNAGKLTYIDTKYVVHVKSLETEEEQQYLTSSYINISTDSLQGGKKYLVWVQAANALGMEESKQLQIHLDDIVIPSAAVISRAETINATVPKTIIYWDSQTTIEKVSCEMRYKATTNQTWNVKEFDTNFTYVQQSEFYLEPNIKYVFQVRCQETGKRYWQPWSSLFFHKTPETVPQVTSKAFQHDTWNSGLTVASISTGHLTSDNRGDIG

B1: PRO1993 (multispecific antibody)
chain 1: DIQMTQSPSSLSASVGDRVTITCKASQDVSIGVAWYQQKPGKAPKLLIYSASYRYTGVPSRFSGSGSGTDFTLTISSLQPEDFATYYCQQYYIYPYTFGCGTKVTVLGGGGGSGGGGSGGGGSGGGGSEVQLVESGGGLVQPGGSLRLSCAASGFTFTDYTMDWVRQAPGKCLEWVADVNPNSGGSIYNQRFKGRFTLSVDRSKNTLYLQMNSLRAEDTAVYYCARNLGPSFYFDYWGQGTLVTVSSGGGGSGGGGSDVVMTQSPSSLSASVGDRVTITCQASQIISSRSAWYQQKPGQPPKLLIYQASKLASGVPSRFSGSGSGTDFTLTISSLQPEDFATYYCQCTYIDSNFGAFGTGTKLTVLGGGSGGSDIQMTQSPSSLSASVGDRVTITCQASQSISNRLAWYQQKPGKAPKLLIYSASTLASGVPSRFSGSGSGTDFTLTISSLQPEDFATYYCQSTYYGNDGNAFGCGTKVTVLG
chain 2: DIQMTQSPSSLSASVGDRVTITCQASQSINDYLAWYQQKPGKAPKLLIYKASTLASGVPSRFSGSGSGTDFTLTISSLQPEDFATYYCQAAYIITDIDNVFGTGTKVTVLGGGGGSGGGGSGGGGSGGGGSQVQLQESGPGLVKPSETLSLTCKVSGFSFSSGYDMCWIRQPPGKGLEWIGCVVAGSVDITYYASWAKGRVTISVDSSKNQFSLKLSSVTAADTAVYYCARKDAYSDAFNLWGQGTLVTVSSGGGGSGGGGSEVQLVESGGGLVQPGGSLRLSCAASGFSFSANYYPCWVRQAPGKCLEWIGCIYGGSSDITYDANWTKGRFTISRDNSKNTVYLQMNSLRAEDTAVYYCARSAWYSGWGGDLWGQGTLVTVSSGGGSGGGSEVQLVESGGGLVQPGGSLRLSCAASGFSFSSSYWICWVRQAPGKGLEWVGCVFTGDGTTYYASWAKGRFTISRDNSKNTVYLQMNSLRAEDTATYFCARPVSVYYYGMDLWGQGTLVTVSS
B2: PRO1780 (multispecific antibody)
chain 1: not shown
chain 2: DIQMTQSPSSLSASVGDRVTITCQASQSISNRLAWYQQKPGKAPKLLIYSASTLASGVPSRFSGSGSGTDFTLTISSLQPEDFATYYCQSTYYGNDGNAFGCGTKVTVLGGGGGSGGGGSGGGGSGGGGSEVQLVESGGGLVQPGGSLRLSCAASGFSFSANYYPCWVRQAPGKCLEWIGCIYGGSSDITYDANWTKGRFTISRDNSKNTVYLQMNSLRAEDTAVYYCARSAWYSGWGGDLWGQGTLVTVSSGGGGSGGGGSQVQLQESGPGLVKPSETLSLTCKVSGFSFSSGYDMCWIRQPPGKGLEWIGCVVAGSVDITYYASWAKGRVTISVDSSKNQFSLKLSSVTAADTAVYYCARKDAYSDAFNLWGQGTLVTVSSGGGSGGGSEVQLVESGGGLVQPGGSLRLSCAASGFSFSSSYWICWVRQAPGKCLEWVGCVFTGDGTTYYASWAKGRFTISRDNSKNTVYLQMNSLRAEDTATYFCARPVSVYYYGMDLWGQGTLVTVSS
B3: PRO1558 (multispecific antibody)
chain 1: DIQMTQSPSSLSASVGDRVTITCQASENIYSFLAWYQQKPGKAPKLLIYSASKLAAGVPSRFSGSGSGTDFTLTISSLQPEDFATYYCQQTNRYSNPDIYNVFGTGTKVTVLGGGGGSGGGGSGGGGSGGGGSEVQLVESGGGLVQPGGSLRLSCAASGIDFNSNYYMCWVRQAPGKGLEWIGCIYVGSHVNTYYANWAKGRFTISRDNSKNTVYLQMNSLRAEDTAVYYCATSGSSVLYFKFWGQGTLVTVSSGGGGSGGGGSDVVMTQSPSSLSASVGDRVTITCQASQIISSRSAWYQQKPGQPPKLLIYQASKLASGVPSRFSGSGSGTDFTLTISSLQPEDFATYYCQCTYIDSNFGAFGCGTKLTVLGGGSGGSDIQMTQSPSSLSASVGDRVTITCQSSQSVFSNNYLAWFQQKPGQSPKRLIYSASTLASGVPSRFSGSGSGTDFTLTISSLQPEDFATYYCLGSYACSSADCYVFGTGTKVTVLG
chain 2: not shown
B4: PRO1557 (multispecific antibody)
chain 1: not shown
chain 2: DIQMTQSPSSLSASVGDRVTITCQASENIYSFLAWYQQKPGKAPKLLIYSASKLAAGVPSRFSGSGSGTDFTLTISSLQPEDFATYYCQQTNRYSNPDIYNVFGTGTKVTVLGGGGGSGGGGSGGGGSGGGGSEVQLVESGGGLVQPGGSLRLSCAASGIDFNSNYYMCWVRQAPGKGLEWIGCIYVGSHVNTYYANWAKGRFTISRDNSKNTVYLQMNSLRAEDTAVYYCATSGSSVLYFKFWGQGTLVTVSSGGGGSGGGGSEVQLVESGGGLVQPGGSLRLSCAASGFSLSSYDMSWVRQAPGKGLAWIGASYASGPTYYASWAKGRFTISRDNSKNTVYLQMNSLRAEDTATYFCARGGWTGTSHSNIWGQGTLVTVSSGGGSGGGSEVQLVESGGGLVQPGGSLRLSCAASGFSFSSSYWICWVRQAPGKCLEWVGCVFTGDGTTYYASWAKGRFTISRDNSKNTVYLQMNSLRAEDTATYFCARPVSVYYYGMDLWGQGTLVTVSS

Experiments:
[1] = molecular target: T2, human PD-L1 expressed on cells (CHO-PD-L1, HCC1954, HCC827) (human, UniProt Q9NZQ7 19-290); assay: flow cytometry competition in presence of human SA: binding of biotinylated PD-1 to HCC1954 cells (Her2+++, PD-L1); blocked ligand PD-1 [HCC1954]
T2 construct: whole, on cells; also called hPD-L1; PD-L1 expressing cells

[2] = molecular target: T2, human PD-L1 expressed on cells …; assay: flow cytometry with human SA, inhibition of PD-1 binding to HCC1954 cells
[3] = molecular target: CD137 on transgenic NF-kB Jurkat reporter cells (Homo sapiens (Human), UniProt Q07011 24-255); assay: cell-based or functional assay
[4] = molecular target: T2, human PD-L1 expressed on cells …; assay: flow cytometry with human SA, inhibition of PD-1 binding to HCC827 cells
[5] = molecular target: T3, recombinant human Her2 ECD (SinoBiological, cat. 10004-HCCH) (human, UniProt P04626 23-652); assay: SPR, immobilised Her2 ECD
T3 construct: extracellular domain; bought protein

[6] = molecular target: T1, recombinant human IL-23R (custom-made …); assay: SPR, immobilised IL-23R
[7] = molecular target: T4, recombinant human CD3E ECD (SinoBiological, cat. 10977-H08H) (human, UniProt P07766 23-126); assay: SPR, immobilised CD3e ECD, two-state model (ka1)
T4 construct: extracellular domain; bought protein; also called CD3s

[8] = molecular target: T4, recombinant human CD3E ECD …; assay: SPR, immobilised CD3e ECD, two-state model
human serum albumin = molecular target: T5, human serum albumin (human, UniProt P02768 25-609); assay: SPR, immobilised HSA, pH 5.5
T5 construct: also called HSA; human SA

mouse serum albumin = molecular target: T6, mouse serum albumin (mouse, UniProt P07724 25-608); assay: SPR, immobilised MSA, pH 5.5
T6 construct: also called MSA; mouse SA

[9] = molecular target: T7, Fc-tagged human PD-L1 extracellular domain (SinoBiological, cat. 10084-H02H) (human, UniProt Q9NZQ7 19-238); assay: SPR, captured Fc-PD-L1 ECD
T7 construct: extracellular domain; also called hPD-L1; not shown: Fc tag of the bought protein

[10] = molecular target: T8, CD3e on Jurkat PD-1 NFAT reporter T cells or on T cells of human PBMCs (human, UniProt P07766 23-207); assay: cell-based or functional assay
[11] = molecular target: T4, recombinant human CD3E ECD …; assay: SPR, immobilised CD3e ECD, two-state model (kd1)
[12] = molecular target: T4, recombinant human CD3E ECD …; assay: SPR, immobilised CD3e ECD, two-state model; overall KD of the two-state fit
[13] = molecular target: T8, CD3e on Jurkat PD-1 NFAT reporter T …; assay: cell-based or functional assay; remark: listed apart in the source
[14] = molecular target: T4, recombinant human CD3E ECD …; assay: SPR, immobilised CD3e ECD, two-state model (ka1); ka1, first step of the two-state fit
[15] = molecular target: T4, recombinant human CD3E ECD …; assay: SPR, immobilised CD3e ECD, two-state model (kd1); kd1, first step of the two-state fit

T4 sequence (P07766 23-126): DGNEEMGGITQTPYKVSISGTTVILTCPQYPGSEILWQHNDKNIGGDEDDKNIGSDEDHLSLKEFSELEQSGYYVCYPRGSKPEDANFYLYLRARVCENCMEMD
T6 sequence (P07724 25-608 limits assumed): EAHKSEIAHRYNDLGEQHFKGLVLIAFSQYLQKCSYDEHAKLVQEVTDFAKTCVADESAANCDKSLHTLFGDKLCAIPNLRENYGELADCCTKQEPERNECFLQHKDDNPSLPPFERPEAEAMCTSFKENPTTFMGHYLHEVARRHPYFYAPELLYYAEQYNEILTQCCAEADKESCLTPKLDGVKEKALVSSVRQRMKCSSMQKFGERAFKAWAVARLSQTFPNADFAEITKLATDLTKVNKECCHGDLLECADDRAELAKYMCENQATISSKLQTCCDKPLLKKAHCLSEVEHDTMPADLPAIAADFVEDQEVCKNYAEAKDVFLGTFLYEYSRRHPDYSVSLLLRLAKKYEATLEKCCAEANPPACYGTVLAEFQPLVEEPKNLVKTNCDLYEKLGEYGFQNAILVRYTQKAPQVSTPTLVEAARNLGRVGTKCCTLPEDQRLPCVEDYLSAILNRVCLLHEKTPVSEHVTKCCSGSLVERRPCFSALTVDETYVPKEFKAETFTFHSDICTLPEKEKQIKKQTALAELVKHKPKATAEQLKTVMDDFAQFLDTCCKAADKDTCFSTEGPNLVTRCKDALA

Binder	IC50 [2] [µg/mL]	EC50, NFkB reporter gene assay, HCC1954 cells [3] [pM]	Kd [5] [pM]	koff [5] [s⁻¹]	kon [5] [M⁻¹ s⁻¹]	Kd [6] [pM]	koff [6] [s⁻¹]	kon [6] [M⁻¹ s⁻¹]	KD1 [8] [nM]	kd2 [8] [s⁻¹]	Kd (human serum albumin) [pM]	koff (human serum albumin) [s⁻¹]	kon (human serum albumin) [M⁻¹ s⁻¹]	Kd (mouse serum albumin) [pM]	koff (mouse serum albumin) [s⁻¹]	kon (mouse serum albumin) [M⁻¹ s⁻¹]	binding result [9]	IC50, NFAT reporter, HCC1954 cells [10] [pM]	rel. max. activation vs PRO1497, NFAT reporter, HCC1954 cells [10] [%]	further results
B1	0.167	168	–	–	–	–	–	–	–	–	–	–	–	–	–	–	–	–	–	IC50 (read off the curve) [1]: ~2000 pM; EC50, NFkB reporter gene assay, HCC827 cells [3]: 287 pM
B2	0.695	603	–	–	–	–	–	–	–	–	–	–	–	–	–	–	–	–	–	IC50 [4]: 32.6 µg/mL
B3	–	–	300	6.07e-05	202000	868	0.000493	568000	15.7	0.00335	501	0.000123	245000	11500	0.0011	95800	no binding	2710	53	kon [7]: 315000 M⁻¹ s⁻¹; Kd [8]: 7950 pM; koff [11]: 0.00496 s⁻¹
B4	–	–	318	6.35e-05	200000	931	0.000514	552000	18.7	0.00356	498	0.00012	240000	11200	0.00107	95600	no binding	391	82	Kd [12]: 8430 pM; target cell killing IC50, 16 h, HCC1954 cells [13]: 2.79 pM; target cell killing IC50, 16 h, MCF-7 cells [13]: 18.1 pM; kon [14]: 283000 M⁻¹ s⁻¹; IC50, NFAT reporter, HCC1954 cells, + PRO1434 [10]: 671 pM; IC50, NFAT reporter, HCC1954 cells, + nivolumab [10]: 319 pM; koff [15]: 0.00529 s⁻¹

From patent US20220411536A1 (NUMAB THERAPEUTICS, published 2022)
